According to publication PMC4824069:

Biological target: HEY1 (UniProt Q9Y5J3)
Assay: co-IP of Flag-DPF3a and HA-HEY1
Settings: reference: wild type; sites S348

Sequence of UniProt Q9Y5J3 (Q9Y5J3 whole entry, looked up): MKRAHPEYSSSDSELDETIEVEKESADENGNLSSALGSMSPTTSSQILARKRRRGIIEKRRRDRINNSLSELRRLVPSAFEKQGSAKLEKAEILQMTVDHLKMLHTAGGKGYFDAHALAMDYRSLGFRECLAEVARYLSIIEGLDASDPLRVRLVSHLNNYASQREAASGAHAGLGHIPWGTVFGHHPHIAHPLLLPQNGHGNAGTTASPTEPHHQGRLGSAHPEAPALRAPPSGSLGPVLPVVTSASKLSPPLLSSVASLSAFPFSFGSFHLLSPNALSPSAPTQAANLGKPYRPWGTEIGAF

binding against the reference: weaker
Substance: DPF3a (BAF45c1) (from UniProt Q92784-2) S348A
